For this assay, the target named is thyroglobulin of normal mice (mouse (endogenous in thyroid tissue)) (UniProt O08710). Nature of the assay: native gel or EMSA. In general terms: Mobility shift assays separate free from complexed probe on a gel.

In the case of “thyroglobulin of normal mice, O08710 21-2766”, the stoichiometry N (usually a count of units in the complex or per binding partner) came to 2.

(Values after paper PMC2120816.)
